Experimental data taken from the supplement of paper PMC9170038.

Legend:
MS2 coat protein [1] = assay: apparent KD of MS2 coat protein, switch ON state; designed switch direction (-1 OFF switch, 1 ON switch): -1; higher = weaker reporter binding; details: FMN input: 0 or 200 uM; Eterna round: R93 (includes R88 designs)
In short: (§1)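 For every design, apparent KD is the median of normalised binding-curve fits from its clusters. The RNA switches were transcribed on-chip from Illumina sequencing clusters and titrated with SNAP-549-labelled MS2 coat protein (twofold steps, 0.7 or 1.5 nM to 3 µM; 0.8–1.5 h to 10–20 min per step). Titrations used 100 mM Tris-HCl pH 7.5, 80 mM KCl, 4 mM MgCl2, without or with constant ligand.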

MS2 coat protein [2] = assay: apparent KD of MS2 coat protein, switch OFF state (with FMN for OFF switches, without FMN for ON switches); designed switch direction (-1 OFF switch, 1 ON switch): -1; higher = weaker reporter binding; details: FMN input: 0 or 200 uM; Eterna round: R93 (includes R88 designs)
In short: as §1

| Sequence | apparent KD of MS2 coat protein (MS2 coat protein [1]) [nM] | apparent KD of MS2 coat protein (MS2 coat protein [2]) [nM] |
| --- | --- | --- |
| AUCAACCUAGGAUAUACAUGAGGAUCACCCAUGUACAGAUACAACAAGGGAAACACACGUAGAAGGAGGAAGAU [JR_Exc003_Sub1205] | 24.4 | 52.1 |
| AAGAAGUCAGGAUAUACAAAAUAAAAGAAAAGAAAGAAAGAACAUGAGGAUCACCCAUGUAGAAGGGACAAGAA [Nerikare] | 57.8 | 37.4 |
| AGAAUACAUGAGGAUCACCCAUGUGAGGAUAUGUAGAUAAAAAUAAAAUAAAAUAAAUACAGAAGGCACAAAAG [EX 1 May 19] | 61.3 | 59.7 |
| GAGAAGUGAGGAUAUCGAAGACAGACGAAAAGUCUGUCAAACGAGAAGGCACAUGAGGAUCACCCAUGUGGGAG [Mat - Exaclusion 4 - Eli mod - D75] | 81.2 | 302 |
| AAAAAACAUGAGGAUCACCCAUGUCAGGAUAUCCGGUUCUUAAAAAAAAAAAGGCGUUGGAGAAGGGACAUUCC [Chica Displaced 11 - Jieux - Exclusion 1] | 28.9 | 38 |
| UAAAAGCGAGGAUAUACAUGAGGAUCACCCAUGUGAAAGAAAAAUAAAAAAAAAAAAAGUAGAAGGCGCUAAAA [Ex 3 #2] | 58.9 | 65.7 |
| AAGAAACAUGAGGAUCACCCAUGUCAGGAUAUACAAAAGAAAAGAAAAGAAAGAAGAAGUAGAAGGGACAAAGG [Neitiqerty Siptah] | 38.3 | 69.3 |
| AAAAGCUCAGGAUAUACGGUCUGUUGUUGAAAAAGUAAAAAACAUGAGGAUCACCCAUGUAGAAGGGAGCGAAA [Exclusion2-cac1] | 39.7 | 115 |
| AAAAAGUCAGGAUAUGUAGCAUGAUACGAAAGUAUCAUGCUACAGAAGGGACAUGAGGAUCACCCAUGUGAUCA [Ex4: 938] | 365 | 33.2 |
| UAAAGGCGAGGAUAUACAUGAGGAUCACCCAUGUGAAUAAAUAAGAAAAUAAAAGAAAGUAGAAGGCGCAAGAA [LROPPY Exclusion 3 - v03_deltaG=1.9 break up As mixed] | 44.1 | 44.9 |
| AAAUUGUCAGGAUAUCUUAGAACUCUAAAAUAGAGGAGCUAAGAGAAGGGACAUGAGGAUCACCCAUGUAAAAC [May 89] | 86.5 | 71 |
| AAAAAGUCAGGAUAUACAAAAGUGCGAAAGCACAAAAUGGGACAUGAGGAUCACCCAUGUAGAAGGGACAAGAA [JL In the Red 01 (Mod)] | 148 | 472 |
| CUCAAGUGAGGAUAUACAAAUAGUAAAUAAGUAUAACAAAAGUAGAAGGCACAUGAGGAUCACCCAUGUAAAUA [JR_Exc004_Sub302] | 29.4 | 26.3 |
| AGCUAGUCAGGAUAUACGAAAAUGAUAGAAGACGUAAGGGAACAUGAGGAUCACCCAUGUAGAAGGGACUAGCA [Diamond 47] | 24.7 | 63.1 |
| UUCAAGUGAGGAUAUACGAAUAGUAAGUAAGUAUAACAGACGUAGAAGGCACAUGAGGAUCACCCAUGUAAAUA [JR_Exc004_Sub304] | 25.8 | 22.5 |
| AACAAGUCAGGAUAUCAUACUAAUCACUUGCUUUAAAUGUAUGAGAAGGGACAUGAGGAUCACCCAUGUAAAGA [Exclusion4-cac3] | 46.8 | 34.1 |
| AAGAACGUAGGAUAUACAAAAUAAAAGAAAAGAAAGAAAGAACAUGAGGAUCACCCAUGUAGAAGGACGAAGAA [Sekhemrekhutawy Khabaw] | 21.6 | 21.8 |
| GGAAAGCAAGGAUAUGCAAACAAACAAACAAACAAAAGGGAACAUGAGGAUCACCCAUGUAGAAGGUGCAAACA [Exclusion 2 Two redone] | 41.9 | 28.6 |
| AAAGAUGCAGGAUAUACAUGAGGAUCACCCAUGUUAGACCUGAAAAAGGGAAAAGAAAGUAGAAGGGCAUAAUA [Ex 3 May 31] | 12.8 | 11.5 |
| AAGAAGCGAGGAUAUACAAAAUAAAAGAAAAGAAAGAAAGAACAUGAGGAUCACCCAUGUAGAAGGCGCAAGAA [Semenkare Nebnuni] | 34.9 | 28.5 |
| AAAAGGAUAGGAUAUACAUGAGGAUCACCCAUGUGAAUAAAUAAAAUAAAUAAAUAAAGUAGAAGGGUCAAUAA [LROPPY Exclusion 3 - v05_deltaG=3.6 break up the As] | 27.8 | 25.4 |
| AAGAGACAUGAGGAUCACCCAUGUGAGGAUAUGACGUAAAUAAAGAAAGAAGAAAUCGUCAGAAGGCACACCAA [55%, Disencluded 2, 4] | 48.4 | 75.8 |

| Sequence | apparent KD of MS2 coat protein (MS2 coat protein [1]) [nM] | apparent KD of MS2 coat protein (MS2 coat protein [2]) [nM] |
| --- | --- | --- |
| AAAAAACAUGAGGAUCACCCAUGUAAGGAUAUGCAGAUUAUAAGAAAAAAAAAAAAAAGCAGAAGGUACAAAAA [Default title] | 37.4 | 28.2 |
| GAGGUAUGAGGAUAUACAUAGAUACAGACACAUGUUCAAGUACAUGAGGAUCACCCAUGUAGAAGGCAUAUAUC [Mat - Same state - Mayanna Mod - D105] | 22 | 37.2 |
| AAAAAACAUGAGGAUCACCCAUGUAAGGAUAUGCAAAAAAUGGGUAAAAGGGUAAAAAGCAGAAGGUACAAAAA [scarecrow1] | 156 | 92.1 |
| AACAGUACAGGAUAUACAUGAGGAUCACCCAUGUAAAAGGGAAGUGGCGUACCACAAAGUAGAAGGGUACUGGA [Moding Maslow revisited (73) 6] | 37.6 | 121 |
| AAGAAGUGAGGAUAUCGAAAAGAAAAGAAAAGAAAAGAAAACGAGAAGGCACAUGAGGAUCACCCAUGUAAGAA [Setutre Darius I the Great] | 28.1 | 41 |
| UAAAGGAUAGGAUAUACAUGAGGAUCACCCAUGUGAAUAAAUAAGAAAAUAAAAGAAAGUAGAAGGAUCAAGAA [LROPPY Exclusion 3 - v04_deltaG=3.9 break up As mixed] | 25.2 | 29.6 |
| AACAGUACAGGAUAUACAUGAGGAUCACCCAUGUAAAAAGGGAGUGGCGUACCACAAAGUAGAAGGGUACUGGA [Moding Maslow revisited (73) 7] | 36.9 | 172 |
| AAAAGGUCAGGAUAUGCCCGCCGGGUGGGAAGGCCGGGUGGGUAGAAGGGACAUGAGGAUCACCCAUGUAAAAA [Opal 42] | 52.4 | 47.9 |
| AAAAAGGCAGGAUAUACAAAAAAAAAAAAAAAAAAGGAGGGACAUGAGGAUCACCCAUGUAGAAGGGCCAAAAA [Kai Theodor Erikson] | 97.4 | 121 |
| AAAAAGGAAGGAUAUACAUGAGGAUCACCCAUGUAAAAAAAAAAAAAGGGAAAAAAAAGUAGAAGGUCCAAAAA [Montuemsaf Djedankhre] | 33 | 40.9 |
| AACAGGUCAGGAUAUGUGGAAAAAAUAAAAAAAAUAAAAACACAGAAGGGACAUGAGGAUCACCCAUGUAAACA [May 23] | 47.2 | 60.4 |
| AAAAAACAUGAGGAUCACCCAUGUAAGGAUAUGUGAAAAAAAAAAUAAAAAAAAAAAAGCAGAAGGUACAAAAA [LROPPY Exclusion 1 - v01_deltaG=3.64] | 66.5 | 74.8 |
| AAAAUGUGAGGAUAUGUACGAAAAAAUAAAAAAAUAAAAGUACAGAAGGCACAUGAGGAUCACCCAUGUGUGGG [EX4 400: Minimal 13] | 113 | 76.1 |
| AAGAAGUGAGGAUAUGCUGCUCGUCACUUGCGUGAUGAGUAGCAGAAGGCACAUGAGGAUCACCCAUGUGGGAA [Modifying Chris (69%) Late G segment, early G segment 3] | 89.1 | 110 |
| AAAAAACAUGAGGAUCACCCAUGUAAGGAUAUGACUUAAAUAAAGAAAGAAGAAAUAGUCAGAAGGUACAAAUA [Disincluded (MS2 Riboswitches - States energetically close)] | 20.4 | 31 |
| AAGACGUAAGGAUAUAUUAUGGGACAAUGAAGGAAGAUAAAACAUGAGGAUCACCCAUGUAGAAGGUGCAAAGA [JR_Exclusion2_Sub3] | 40.3 | 32.8 |
| AAAAUACAUGAGGAUCACCCAUGUGAGGAUAUGCUAUGGAAAAAUAAAAUAAAACAUAGCAGAAGGCACAAAAA [Mat - Exclusion 1 - Eli mod - D41] | 34.3 | 73.4 |
| AAAAAAUGAGGAUAUACAUGAGGAUCACCCAUGUAAAAGGUCAGGGUGGCGGAGGACGGUAGAAGGCAUAAAAA [Excls3-X] | 21.6 | 18.2 |
| GAAAAGUGAGGAUAUGCGAAGGCGUCUGAUAGACGAGGCUAGCAGAAGGCACAUGAGGAUCACCCAUGUGGGAA [Mat - Exclusion 4 - Eli mod - D91] | 71.6 | 133 |
| AAAAAAGGAGGAUAUACGAACAUGUCGAAAGACGUGAAGGGACAUGAGGAUCACCCAUGUAGAAGGCUUAAAAA [Mat - Exclusion 2 - JL mod - D69] | 37 | 23.9 |
| CUCUUGUGAGGAUAUGUAAGAAAAGAAGAGAAAGAAAAGAAACAGAAGGCACAUGAGGAUCACCCAUGUAAGAA [EteRNA is fun!] | 52.8 | 146 |
